This note sets out measurements from patent US20250376518A1 (UNIVERSITE DE MONTPELLIER, published 2025).

Experiment [1] addresses T1, rat SNAP-tagged mGlu2 receptor (wild-type rat mGlu2 subunit with an HA-tag and a SNAP inserted just after the … (rat, UniProt P31421 19-872, SNAP tag labelled with SNAP-Lumi4-Tb in the TR-FRET binding assay)). In words: cell-based or functional assay.
Experiment [2] addresses T1, rat SNAP-tagged mGlu2 receptor …. In words: TR-FRET saturation binding on HEK293 cells with Lumi4-Tb-labelled rat SNAP-mGlu2, anti-6His-d2; active conformation (1 uM LY379268). Here is the method: (§1) Each datapoint represents the mean±s.d. of an individual experiment performed in triplicate.
(§2) Binding experiments by TR-FRET. HEK293 cells (ATCC CRL-1573) were transfected with rat SNAP-tagged mGlu2 receptors (Maurel et al. Nature Methods 2008). 24 h after transfection, cells were labeled in 150 mm cell culture plate with 100 nM SNAP-Lumi4Tb in DMEM-GlutaMAX for 1 h at 37° C., and then washed 3 times with Krebs buffer (10 mM Hepes pH7.4, 146 mM NaCl, 4.2 mM KCl, 1 mM CaCl2, 0.5 mM MgCl2, 5.6 mM glucose and bovine serum albumin 0.1%). Cells were detached using cell dissociation buffer (Sigma aldrich) transferred at 10 000 cells per well in a white 384-well plate (Greiner bio-one, PS, F-bottom, small volume, Hibase, medium binding). Increasing concentration of His-tagged nanobodies together with either 1 μM LY379268 (Tocris, Bio-techne, France) or 1 μM LY341495 (Tocris, Bio-techne, France) and with 200 nM of anti-6His-d2 (Tocris, Bio-techne, France) were applied on Lumi4Tb-labeled cells in a final volume of 20 μL and incubated overnight at 20° C. FRET signal was determined by measuring the sensitized acceptor emission (665 nm) and Tb donor emission (620 nm) using a 50 μs delay and 450 us integration time upon excitation at 337 nm on a PHERAstar FS plate-reader (BMG LabTech, Ortenberg, Germany). TR-FRET (or HTRF) ratio (665 nm/620 nm×10⁴, Cisbio patent 8 U.S. Pat. No. 5,527,684) was calculated for preventing interferences due to medium variability and chemical compound or to normalize experiments when using cells expressing different receptor levels.
A general note: Time-resolved FRET reads energy transfer from a long-lived donor to a nearby acceptor.

The target is the same in experiment [3]. In words: TR-FRET saturation binding on HEK293 cells with Lumi4-Tb-labelled rat SNAP-mGlu2, anti-6His-d2; inactive conformation (1 uM LY341495). The procedure:
as §1, §2

For experiment [4] the target is unchanged. In words: cell-based or functional assay. The source holds these as a separate data set.
For experiment [5] the target is unchanged. The experiment in a line: apparent affinity, TR-FRET saturation binding on HEK293 cells with SNAP-mGlu2, in the presence of agonist LY379268 1 uM. The procedure:
as §2, with “Increasing concentration of His-tagged nanobodies together with either 1 μM LY379268 (Tocris, Bio-techne, France) or 1 μM LY341495 (Tocris, Bio-techne, France) and with 200 nM of anti-6His-d2 (Tocris, Bio-techne, France) were applied on Lumi4Tb-labeled cells in a final volume of 20 μL and incubated overnight at 20° C.” left out, “levels. […]” for “levels.”

Experiment [6] has the same target. The experiment in a line: TR-FRET saturation binding on HEK293 cells with SNAP-mGlu2, in the presence of agonist LY379268 1 uM; reference IGF1168. Here is the method:
as §2, with “Increasing concentration of His-tagged nanobodies together with either 1 μM LY379268 (Tocris, Bio-techne, France) or 1 μM LY341495 (Tocris, Bio-techne, France) and with 200 nM of anti-6His-d2 (Tocris, Bio-techne, France) were applied on Lumi4Tb-labeled cells in a final volume of 20 μL and incubated overnight at 20° C.” left out, “levels. […]” for “levels.”

Experiment [7] addresses T2, mouse mGlu2 receptor in brain tissue sections of wild-type C57BL/6J mice (mouse, UniProt Q14BI2 19-872).
T2 construct: whole, on cells; Endogenous receptor in fixed tissue sections; mGlu2-/- mouse sections were the negative control
In words: ex vivo immunohistofluorescence on mouse brain sections; no labeling in sections from mGlu2-/- mouse. Here is the method: Histological processing of brains. Wild-type C57BL/6J mice were purchased from Janvier Labs and brains from mGlu2−/− mice were kindly provided by Dr. Gonzalez-Maeso. Mice were anesthetized (Euthasol Vet 8%, Alcyon, Pau, France) and sacrificed by a cardiac perfusion of 4% paraformaldehyde (PFA). Brains were extracted and fixed in a 4% PFA solution (Euromedex, Souffelweyersheim, France) overnight at 4° C. Brains were rinsed in PBS and cryoprotected in a 30% sucrose solution for 4 days at 4° C. Brains were then included in OCT (Tissue-Tek, Sakura Finetek, Villeneuve d′Asq, France), quickly frozen in acetone chilled on dry ice and conserved at −80° C. until use. Frozen brains included in OCT, were put at −20° C. 24 h prior cryo-sectioning. They were then mounted on a cryostat (Leica, Nanterre, France) and 16 um coronal or sagittal sections were performed and directly mounted on Superfrost Plus glass slides (Microm) and kept at −20° C., until use. For immunohistofluorescence experiments, coronal and sagittal brain tissue sections of WT and mGlu2^{-/-} mice were blocked 1 h at 25° C. with a blocking solution (3% BSA, 0.1% Triton X100 in PBS) and incubated with IGF1202-d2 (200 nM), overnight at 4° C., to label mGlu2 receptors. Sections were washed with PBS with distilled water and mounted using […]

T1 sequence (P31421 19-872): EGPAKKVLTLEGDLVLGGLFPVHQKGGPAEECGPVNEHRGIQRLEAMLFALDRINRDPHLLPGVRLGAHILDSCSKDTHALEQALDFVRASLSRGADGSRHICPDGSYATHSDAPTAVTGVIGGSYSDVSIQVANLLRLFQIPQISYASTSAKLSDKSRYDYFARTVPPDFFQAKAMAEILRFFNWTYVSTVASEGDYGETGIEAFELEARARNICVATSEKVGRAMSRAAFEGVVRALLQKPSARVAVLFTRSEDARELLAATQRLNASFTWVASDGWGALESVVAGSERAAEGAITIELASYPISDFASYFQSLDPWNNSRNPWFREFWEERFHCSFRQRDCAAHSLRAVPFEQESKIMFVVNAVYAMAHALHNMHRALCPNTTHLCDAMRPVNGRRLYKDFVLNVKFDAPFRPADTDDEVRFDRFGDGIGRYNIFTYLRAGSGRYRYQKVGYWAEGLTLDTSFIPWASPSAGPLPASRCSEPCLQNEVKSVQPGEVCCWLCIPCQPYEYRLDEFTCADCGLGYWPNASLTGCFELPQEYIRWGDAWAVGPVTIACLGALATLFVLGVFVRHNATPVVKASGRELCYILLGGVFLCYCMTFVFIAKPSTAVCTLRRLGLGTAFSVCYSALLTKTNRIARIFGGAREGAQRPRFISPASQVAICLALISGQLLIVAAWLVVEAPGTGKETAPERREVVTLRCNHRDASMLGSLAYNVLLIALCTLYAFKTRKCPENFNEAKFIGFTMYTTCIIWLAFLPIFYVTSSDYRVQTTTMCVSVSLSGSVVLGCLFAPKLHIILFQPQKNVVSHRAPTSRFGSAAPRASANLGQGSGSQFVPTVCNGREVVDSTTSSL
T2 sequence (Q14BI2 19-872): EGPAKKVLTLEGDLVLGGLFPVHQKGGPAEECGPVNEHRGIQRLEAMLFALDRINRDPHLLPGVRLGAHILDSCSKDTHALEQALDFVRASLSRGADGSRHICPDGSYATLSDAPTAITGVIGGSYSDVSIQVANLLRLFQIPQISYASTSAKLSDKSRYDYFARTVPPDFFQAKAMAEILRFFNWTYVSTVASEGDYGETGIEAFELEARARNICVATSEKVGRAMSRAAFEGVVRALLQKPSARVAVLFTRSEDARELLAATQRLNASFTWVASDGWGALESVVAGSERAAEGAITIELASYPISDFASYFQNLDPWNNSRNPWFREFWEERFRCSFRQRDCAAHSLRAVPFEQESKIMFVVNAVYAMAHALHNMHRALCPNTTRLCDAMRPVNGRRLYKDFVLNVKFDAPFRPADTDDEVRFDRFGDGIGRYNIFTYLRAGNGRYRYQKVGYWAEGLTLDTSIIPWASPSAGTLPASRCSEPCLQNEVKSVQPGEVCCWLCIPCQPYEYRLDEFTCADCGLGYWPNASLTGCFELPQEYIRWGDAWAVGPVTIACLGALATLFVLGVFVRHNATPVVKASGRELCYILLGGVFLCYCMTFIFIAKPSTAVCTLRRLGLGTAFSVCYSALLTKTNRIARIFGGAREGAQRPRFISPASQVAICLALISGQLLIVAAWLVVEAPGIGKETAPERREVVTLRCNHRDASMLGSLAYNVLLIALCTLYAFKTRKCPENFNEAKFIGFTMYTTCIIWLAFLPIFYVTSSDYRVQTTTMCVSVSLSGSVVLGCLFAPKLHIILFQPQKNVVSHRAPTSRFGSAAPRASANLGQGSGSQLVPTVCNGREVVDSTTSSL

B1: IGF-1262 (IGF-1168 HcAb IGF-1168) (VHH)
chain: QVQLVQSGGGLVQAGGSLRLSCAASVRFFSINTMGWYRQAPGKQRELVADITSSGSTNYADSGKGRFTISRDNAKNTVYLQMNRLKPEDTAVYYCHADYKYTTHNTAWGQGTQVTVSSEPKIPQPQPKPQPQPQPQPQPKPQPKPEPQVQLVQSGGGLVQAGGSLRLSCAASVRFFSINTMGWYRQAPGKQRELVADITSSGSTNYADSGKGRFTISRDNAKNTVYLQMNRLKPEDTAVYYCHADYKYTTHNTAWGQGTQVTVSSLEHHHHHH
As for B1, the “pEC50 of the PAM effect on G protein coupling (IP1 accumulation with 0.6 nM LY379268, EC20)” value (“pEC50 of the PAM effect” below) in experiment [1] was 7.2 -log10 M. In addition, in experiment [2], the pKd is 8.23 -log10 M.

B2: IGF-1252 (IGF-1159 HcAb IGF-1168) (VHH)
chain: QVQLVQSGGGLVQAGGSLRLSCAASGRTFSSFAMAWFRQAPGKEREFVAAISWSGSTGHADSVKGRFTITRDNAKNTVFLQMNSLKPEDTAVYYCALGKGSSYYYSPSGYDYWGQGTQVTVSSEPKIPQPQPKPQPQPQPQPQPKPQPKPEPQVQLVQSGGGLVQAGGSLRLSCAASVRFFSINTMGWYRQAPGKQRELVADITSSGSTNYADSGKGRFTISRDNAKNTVYLQMNRLKPEDTAVYYCHADYKYTTHNTAWGQGTQVTVSSLEHHHHHH
notes: Bivalent biparatopic nanobody, two VHH in tandem
On to B2, for which the pKd is 8.49 -log10 M in experiment [3] and 8.77 -log10 M in experiment [2]. Further, the “pEC50 of the PAM effect” value in experiment [1] was 7.94 -log10 M.

B3: IGF-1251 (IGF-1159 GS IGF-1168) (VHH)
chain: QVQLVQSGGGLVQAGGSLRLSCAASGRTFSSFAMAWFRQAPGKEREFVAAISWSGSTGHADSVKGRFTITRDNAKNTVFLQMNSLKPEDTAVYYCALGKGSSYYYSPSGYDYWGQGTQVTVSSGGGGSGGGGSGGGGSQVQLVQSGGGLVQAGGSLRLSCAASVRFFSINTMGWYRQAPGKQRELVADITSSGSTNYADSGKGRFTISRDNAKNTVYLQMNRLKPEDTAVYYCHADYKYTTHNTAWGQGTQVTVSSLEHHHHHH
notes: as for B2
As for B3, the pKd in experiment [3] was 8.54 -log10 M; in experiment [2], 8.99 -log10 M. For the same molecule, the “pEC50 of the PAM effect” value in experiment [1] was 7.65 -log10 M.

B4: IGF-1261 (IGF-1168 GS IGF-1168) (VHH)
chain: QVQLVQSGGGLVQAGGSLRLSCAASVRFFSINTMGWYRQAPGKQRELVADITSSGSTNYADSGKGRFTISRDNAKNTVYLQMNRLKPEDTAVYYCHADYKYTTHNTAWGQGTQVTVSSGGGGSGGGGSGGGGSQVQLVQSGGGLVQAGGSLRLSCAASVRFFSINTMGWYRQAPGKQRELVADITSSGSTNYADSGKGRFTISRDNAKNTVYLQMNRLKPEDTAVYYCHADYKYTTHNTAWGQGTQVTVSSLEHHHHHH
On to B4, for which the “pEC50 of the PAM effect” value in experiment [1] is 7.62 -log10 M. The pKd in experiment [2] was 8.51 -log10 M.

B5: IGF-1201 (IGF-1168 GS IGF-1159) (VHH)
chain: QVQLVQSGGGLVQAGGSLRLSCAASVRFFSINTMGWYRQAPGKQRELVADITSSGSTNYADSGKGRFTISRDNAKNTVYLQMNRLKPEDTAVYYCHADYKYTTHNTAWGQGTQVTVSSGGGGSGGGGSGGGGSQVQLVQSGGGLVQAGGSLRLSCAASGRTFSSFAMAWFRQAPGKEREFVAAISWSGSTGHADSVKGRFTITRDNAKNTVFLQMNSLKPEDTAVYYCALGKGSSYYYSPSGYDYWGQGTQVTVSSLEHHHHHH
notes: as for B2
For the molecule B5, the pKd was 8.95 -log10 M in experiment [3] and 9.34 -log10 M in experiment [2]. Also, in experiment [1], the “pEC50 of the PAM effect” value is 8.25 -log10 M.

B6: IGF-1168 nanobody (VHH)
VHH: QVQLVQSGGGLVQAGGSLRLSCAASVRFFSINTMGWYRQAPGKQRELVADITSSGSTNYADSGKGRFTISRDNAKNTVYLQMNRLKPEDTAVYYCHADYKYTTHNTAWGQGTQVTVSS
notes: PAM nanobody, mGlu2 specific; not shown: His tag (nanobodies in the assay are His-tagged)
In the case of B6, the “pEC50, PAM potency (IP1 accumulation)” value in experiment [4] was 7.22 -log10 M. For the same molecule, the Kd in experiment [5] came to 4.93 nM.

B7: IGF-1202 (IGF-1168 HcAb IGF-1159), biparatopic IGF1202-tag6xHIS (VHH)
chain: QVQLVQSGGGLVQAGGSLRLSCAASVRFFSINTMGWYRQAPGKQRELVADITSSGSTNYADSGKGRFTISRDNAKNTVYLQMNRLKPEDTAVYYCHADYKYTTHNTAWGQGTQVTVSSEPKIPQPQPKPQPQPQPQPQPKPQPKPEPQVQLVQSGGGLVQAGGSLRLSCAASGRTFSSFAMAWFRQAPGKEREFVAAISWSGSTGHADSVKGRFTITRDNAKNTVFLQMNSLKPEDTAVYYCALGKGSSYYYSPSGYDYWGQGTQVTVSSLEHHHHHH
For the molecule B7, the “fold increase in the apparent affinity compared to IGF1168” value in experiment [6] turned out to be 10 fold. Moreover, the pKd in experiment [3] is 8.87 -log10 M; in experiment [2], 9.27 -log10 M. Also, the “pEC50, PAM potency (IP1 accumulation)” value in experiment [4] is 9.16 -log10 M. For the same molecule, the “pEC50 of the PAM effect” value in experiment [1] is 8.81 -log10 M. Further, in experiment [5], the Kd was 0.3 nM.

B8: IGF1202-d2 (red-labeled IGF1202) (VHH)
chain: QVQLVQSGGGLVQAGGSLRLSCAASVRFFSINTMGWYRQAPGKQRELVADITSSGSTNYADSGKGRFTISRDNAKNTVYLQMNRLKPEDTAVYYCHADYKYTTHNTAWGQGTQVTVSSEPKIPQPQPKPQPQPQPQPQPKPQPKPEPQVQLVQSGGGLVQAGGSLRLSCAASGRTFSSFAMAWFRQAPGKEREFVAAISWSGSTGHADSVKGRFTITRDNAKNTVFLQMNSLKPEDTAVYYCALGKGSSYYYSPSGYDYWGQGTQVTVSSLEHHHHHH
modifications: d2 fluorophore coupled with d2-NHS, conditions set for 2 to 3 fluorophores per nanobody; sites not stated
notes: also called red-labled IGF1202
Consider B8, for which, in experiment [7], the binding result is “binds”.
